Test results taken from patent US20030068675, “Position dependent recognition of GNN nucleotide triplets by zinc fingers” (published 2003).

What was measured:
Assay in all cases: EMSA
Details in all cases: tags: MBP fusion
ZFP SBS#1095 = target: T1, ZFP SBS#1095 (synthetic)
T1 chain: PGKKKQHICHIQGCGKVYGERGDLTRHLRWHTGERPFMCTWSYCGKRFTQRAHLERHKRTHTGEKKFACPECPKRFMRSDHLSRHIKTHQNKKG
Outline: (§1)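 Purified ZFP was titrated against labeled double-stranded target (1 nM or lower, at least 10-fold below expected Kd) carrying the natural binding site with flanks. Binding buffer was 10 mM Tris pH 7.5, 100 mM KCl, 1 mM MgCl2, 0.1 mM ZnCl2, 5 mM DTT, 10% glycerol, 0.02% BSA, with equilibration for at least 45 min. Bound and free target were separated on a 10% polyacrylamide gel.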

ZFP SBS#1096 = target: T2, ZFP SBS#1096 (synthetic)
T2 chain: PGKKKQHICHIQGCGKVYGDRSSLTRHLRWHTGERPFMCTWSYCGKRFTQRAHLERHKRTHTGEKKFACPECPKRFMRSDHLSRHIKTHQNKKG
Outline: as §1

ZFP SBS#1075 = target: T3, ZFP SBS#1075 (synthetic)
T3 chain: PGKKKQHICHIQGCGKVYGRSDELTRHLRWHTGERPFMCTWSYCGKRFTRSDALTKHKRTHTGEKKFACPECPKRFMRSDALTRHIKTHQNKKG
Outline: as §1

ZFP SBS#1088 = target: T4, ZFP SBS#1088 (synthetic, UniProt P08047)
T4 chain: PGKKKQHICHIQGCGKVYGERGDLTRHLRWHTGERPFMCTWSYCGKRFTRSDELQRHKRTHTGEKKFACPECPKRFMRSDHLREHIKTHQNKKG
Outline: as §1

ZFP SBS#1087 = target: T5, ZFP SBS#1087 (synthetic, UniProt P08047)
T5 chain: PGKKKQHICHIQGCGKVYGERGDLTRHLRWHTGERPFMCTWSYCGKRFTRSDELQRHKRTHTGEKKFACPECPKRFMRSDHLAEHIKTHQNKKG
Outline: as §1

ZFP SBS#1077 = target: T6, ZFP SBS#1077 (synthetic)
T6 chain: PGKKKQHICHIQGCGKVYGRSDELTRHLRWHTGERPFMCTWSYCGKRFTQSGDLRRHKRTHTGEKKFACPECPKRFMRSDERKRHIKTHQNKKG
Outline: as §1

ZFP SBS#1076 = target: T7, ZFP SBS#1076 (synthetic)
T7 chain: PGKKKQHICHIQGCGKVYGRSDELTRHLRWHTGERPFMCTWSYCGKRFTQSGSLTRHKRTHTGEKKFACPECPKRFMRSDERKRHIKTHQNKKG
Outline: as §1

ZFP SBS#1102 = target: T8, ZFP SBS#1102 (synthetic)
T8 chain: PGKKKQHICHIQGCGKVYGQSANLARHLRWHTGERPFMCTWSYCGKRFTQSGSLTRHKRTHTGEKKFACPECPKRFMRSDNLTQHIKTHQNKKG
Outline: as §1

ZFP SBS#1103 = ZFP SBS#1103 (synthetic)
Chain of ZFP SBS#1103 (synthetic) (chain, as listed by the source): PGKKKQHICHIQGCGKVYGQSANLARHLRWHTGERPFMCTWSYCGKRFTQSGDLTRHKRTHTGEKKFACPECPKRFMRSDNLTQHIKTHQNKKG
Outline: as §1

ZFP SBS#1071 = target: T9, ZFP SBS#1071 (synthetic, UniProt P08047)
T9 chain: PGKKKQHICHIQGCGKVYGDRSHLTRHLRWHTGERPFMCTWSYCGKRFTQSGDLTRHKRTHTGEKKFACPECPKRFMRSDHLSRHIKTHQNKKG
Outline: as §1

ZFP SBS#1070 = target: T10, ZFP SBS#1070 (synthetic, UniProt P08047)
T10 chain: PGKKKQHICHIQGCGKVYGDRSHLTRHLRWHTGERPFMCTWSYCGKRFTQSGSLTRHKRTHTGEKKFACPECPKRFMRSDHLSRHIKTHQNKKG
Outline: as §1

ZFP SBS#1078 = ZFP SBS#1078 (synthetic, UniProt P08047)
Chain of ZFP SBS#1078 (P08047 other isoform, or with tags, fused parts or gaps): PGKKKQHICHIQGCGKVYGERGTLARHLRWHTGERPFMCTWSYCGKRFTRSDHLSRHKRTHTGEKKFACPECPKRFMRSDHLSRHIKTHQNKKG
Outline: as §1

ZFP SBS#1079 = ZFP SBS#1079 (synthetic, UniProt P08047)
Outline: as §1

ZFP SBS#1094 = target: T11, ZFP SBS#1094 (synthetic)
T11 chain: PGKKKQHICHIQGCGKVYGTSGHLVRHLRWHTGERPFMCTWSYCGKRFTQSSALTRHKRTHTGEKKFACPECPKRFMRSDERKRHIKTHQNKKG
Outline: as §1

ZFP SBS#1086 = ZFP SBS#1086 (synthetic)
Outline: as §1

ZFP SBS#1083 = target: T12, ZFP SBS#1083 (synthetic)
T12 chain: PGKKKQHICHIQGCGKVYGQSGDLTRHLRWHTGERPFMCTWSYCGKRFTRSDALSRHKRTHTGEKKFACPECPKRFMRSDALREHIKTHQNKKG
Outline: as §1

ZFP SBS#979 = ZFP SBS#979 (synthetic, UniProt P08047)
Outline: as §1

ZFP SBS#980 = target: T13, ZFP SBS#980 (synthetic, UniProt P08047)
T13 chain: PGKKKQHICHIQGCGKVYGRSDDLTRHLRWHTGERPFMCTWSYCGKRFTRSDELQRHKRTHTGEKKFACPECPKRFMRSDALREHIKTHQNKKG
Outline: as §1

ZFP SBS#1082 = target: T14, ZFP SBS#1082 (synthetic)
T14 chain: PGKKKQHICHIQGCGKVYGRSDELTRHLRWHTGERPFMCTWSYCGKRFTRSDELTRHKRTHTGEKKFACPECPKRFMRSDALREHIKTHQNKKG
Outline: as §1

ZFP SBS#1069 = target: T15, ZFP SBS#1069 (synthetic)
T15 chain: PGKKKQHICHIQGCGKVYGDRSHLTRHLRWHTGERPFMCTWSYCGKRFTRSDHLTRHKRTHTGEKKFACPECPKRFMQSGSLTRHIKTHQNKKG
Outline: as §1

ZFP SBS#1068 = target: T16, ZFP SBS#1068 (synthetic)
T16 chain: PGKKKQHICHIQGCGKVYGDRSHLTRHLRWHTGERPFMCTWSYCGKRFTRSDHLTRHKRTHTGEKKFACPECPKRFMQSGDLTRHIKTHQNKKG
Outline: as §1

ZFP SBS#1081 = target: T17, ZFP SBS#1081 (synthetic, UniProt P08047)
T17 chain: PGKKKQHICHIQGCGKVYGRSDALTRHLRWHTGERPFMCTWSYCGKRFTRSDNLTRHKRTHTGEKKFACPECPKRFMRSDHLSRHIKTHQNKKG
Outline: as §1

ZFP SBS#1097 = target: T18, ZFP SBS#1097 (synthetic)
T18 chain: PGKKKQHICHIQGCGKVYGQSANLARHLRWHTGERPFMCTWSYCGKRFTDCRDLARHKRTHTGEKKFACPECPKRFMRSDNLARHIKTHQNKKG
Outline: as §1

ZFP SBS#464 = target: T19, ZFP SBS#464 (synthetic)
T19 chain: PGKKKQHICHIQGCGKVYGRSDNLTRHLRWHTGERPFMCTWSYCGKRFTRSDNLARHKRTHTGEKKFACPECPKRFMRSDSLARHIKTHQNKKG
Outline: as §1

ZFP SBS#463 = target: T20, ZFP SBS#463 (synthetic)
T20 chain: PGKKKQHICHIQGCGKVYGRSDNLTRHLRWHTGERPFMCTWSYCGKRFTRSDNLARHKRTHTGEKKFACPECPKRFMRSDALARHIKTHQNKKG
Outline: as §1

ZFP SBS#1089 = target: T21, ZFP SBS#1089 (synthetic)
T21 chain: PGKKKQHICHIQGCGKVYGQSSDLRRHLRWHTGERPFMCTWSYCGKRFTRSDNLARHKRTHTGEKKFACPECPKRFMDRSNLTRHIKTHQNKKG
Outline: as §1

ZFP SBS#1085 = target: T22, ZFP SBS#1085 (synthetic)
T22 chain: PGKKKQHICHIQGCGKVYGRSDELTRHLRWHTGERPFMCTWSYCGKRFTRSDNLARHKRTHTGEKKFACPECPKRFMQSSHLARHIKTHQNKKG
Outline: as §1

ZFP SBS#1084 = target: T23, ZFP SBS#1084 (synthetic)
T23 chain: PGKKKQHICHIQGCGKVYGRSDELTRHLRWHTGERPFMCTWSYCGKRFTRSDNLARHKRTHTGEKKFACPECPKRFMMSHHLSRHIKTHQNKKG
Outline: as §1

ZFP SBS#1080 = target: T24, ZFP SBS#1080 (synthetic)
T24 chain: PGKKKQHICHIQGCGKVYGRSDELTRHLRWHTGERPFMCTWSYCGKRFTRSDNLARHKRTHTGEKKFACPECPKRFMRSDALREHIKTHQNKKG
Outline: as §1

ZFP SBS#1072 = ZFP SBS#1072 (synthetic)
Chain of ZFP SBS#1072 (synthetic) (chain, as listed by the source): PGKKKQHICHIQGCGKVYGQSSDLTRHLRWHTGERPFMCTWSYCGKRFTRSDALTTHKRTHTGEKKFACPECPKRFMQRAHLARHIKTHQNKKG
Outline: as §1

ZFP SBS#1073 = ZFP SBS#1073 (synthetic)
Chain of ZFP SBS#1073 (synthetic) (chain, as listed by the source): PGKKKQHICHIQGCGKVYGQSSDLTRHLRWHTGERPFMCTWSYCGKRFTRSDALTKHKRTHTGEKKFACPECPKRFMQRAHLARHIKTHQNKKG
Outline: as §1

ZFP SBS#1106 = ZFP SBS#1106 (synthetic)
Chain of ZFP SBS#1106 (synthetic) (chain, as listed by the source): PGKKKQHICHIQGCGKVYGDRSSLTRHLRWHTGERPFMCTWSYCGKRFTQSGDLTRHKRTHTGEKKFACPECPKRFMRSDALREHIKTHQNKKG
Outline: as §1

ZFP SBS#1105 = ZFP SBS#1105 (synthetic)
Chain of ZFP SBS#1105 (synthetic) (chain, as listed by the source): as the sequence (P08047 other isoform, or with tags, fused parts or gaps) above, with T23D, A25T, R50Q, D52G, H53D, S55T, H81A, S83R, R84E counted along it
Outline: as §1

B1: GGGGGAGCC (dsDNA)
DNA 1: GGGGGAGCC
DNA 2: GGCTCCCCC
Kd (ZFP SBS#1095): 395 pM | Kd (ZFP SBS#1096): 19 pM

B2: GTGTTGGCG (dsDNA)
DNA 1: GTGTTGGCG
DNA 2: CGCCAACAC
Kd (ZFP SBS#1075): 915 pM

B3: CGGGCGGCC (dsDNA)
DNA 1: CGGGCGGCC
DNA 2: GGCCGCCCG
Kd (ZFP SBS#1088): 905 pM | Kd (ZFP SBS#1087): 1240 pM

B4: GCGGCAGCG (dsDNA)
DNA 1: GCGGCAGCG
DNA 2: CGCTGCCGC
Kd (ZFP SBS#1077): 6200 pM | Kd (ZFP SBS#1076): 4100 pM

B5: AAGGCAGAA (dsDNA)
DNA 1: AAGGCAGAA
DNA 2: TTCTGCCTT
Kd (ZFP SBS#1102): 8150 pM | Kd (ZFP SBS#1103): 1400 pM

B6: GGGGCAGGC (dsDNA)
DNA 1: GGGGCAGGC
DNA 2: GCCTGCCCC
Kd (ZFP SBS#1071): 200 pM | Kd (ZFP SBS#1070): 456 pM

B7: GGGGGGGCC (dsDNA)
DNA 1: GGGGGGGCC
DNA 2: GGCCCCCCC
Kd (ZFP SBS#1078): 200 pM | Kd (ZFP SBS#1079): 4100 pM

B8: GCGGTTGGT (dsDNA)
DNA 1: GCGGTTGGT
DNA 2: ACCAACCGC
Kd (ZFP SBS#1094): 12300 pM

B9: GGGGCTCGG (dsDNA)
DNA 1: GGGGCTCGG
DNA 2: CCGAGCCCC
Kd (ZFP SBS#1086): 100 pM

B10: CTGGTGGCA (dsDNA)
DNA 1: CTGGTGGCA
DNA 2: TGCCACCAG
Kd (ZFP SBS#1083): 152 pM

B11: CTGGCGGCG (dsDNA)
DNA 1: CTGGCGGCG
DNA 2: CGCCGCCAG
Kd (ZFP SBS#979): 1590 pM | Kd (ZFP SBS#980): 2200 pM | Kd (ZFP SBS#1082): 152 pM

B12: GCAGGCGGT (dsDNA)
DNA 1: GCAGGCGGT
DNA 2: ACCGCCTGC
Kd (ZFP SBS#1069): 100 pM

B13: GCAGGGGGC (dsDNA)
DNA 1: GCAGGGGGC
DNA 2: GCCCCCTGC
Kd (ZFP SBS#1068): 2050 pM

B14: GGGGAGGTG (dsDNA)
DNA 1: GGGGAGGTG
DNA 2: CACCTCCCC
Kd (ZFP SBS#1081): 50 pM

B15: GAGGCCGAA (dsDNA)
DNA 1: GAGGCCGAA
DNA 2: TTCGGCCTC
Kd (ZFP SBS#1097): 770 pM

B16: GTGGAGGAGA (dsDNA)
DNA 1: GTGGAGGAGA
DNA 2: TCTCCTCCAC
Kd (ZFP SBS#464): 400 pM | Kd (ZFP SBS#463): 500 pM

B17: GACGAGGCT (dsDNA)
DNA 1: GACGAGGCT
DNA 2: AGCCTCGTC
Kd (ZFP SBS#1089): 171 pM

B18: GGTGAGGCG (dsDNA)
DNA 1: GGTGAGGCG
DNA 2: CGCCTCACC
Kd (ZFP SBS#1085): 460 pM | Kd (ZFP SBS#1084): 500 pM

B19: CTGGAGGCG (dsDNA)
DNA 1: CTGGAGGCG
DNA 2: CGCCTCCAG
Kd (ZFP SBS#1080): 1370 pM

B20: GGATTGGCT (dsDNA)
DNA 1: GGATTGGCT
DNA 2: AGCCAATCC
Kd (ZFP SBS#1072): 460 pM | Kd (ZFP SBS#1073): 1370 pM

B21: CTGGCAGCC (dsDNA)
DNA 1: CTGGCAGCC
DNA 2: GGCTGCCAG
Kd (ZFP SBS#1106): 190 pM | Kd (ZFP SBS#1105): 2450 pM
